US11957737B2, “Methods of treating microbial infection and inflammation” (Colorado Seminary, Owner and Operator of University of …, priority 2017, dated 2024)

Legend:
E. coli (ATCC 25922) = assay: standard broth dilutions susceptibility test, read at 600 nm; assay type: cell-based
Procedure: The following methods were used to conduct the experiments described in Examples 1-3, below: The experiments were conducted using the standard broth dilutions susceptibility test (Jorgensen, J. H.; Turnidge, J. D., Susceptibility test methods: dilution and disk diffusion methods. In Manual of Clinical Microbiology, Eleventh Edition, American Society of Microbiology: 2015; pp 1253-73). Briefly, 1 μl of glycerol stock aliquot of E. coli (ATCC 25922) was inculcated into Tryptic Soya agar (TSA) (Sigma Aldrich 22091) plates and incubated at 37° C. for 24 hrs. Subsequently, 3-5 separate colonies were selected and transferred into 4 ml Tryptic Soya broth (TSB) (Sigma Aldrich 22092) and incubated at 37° C. for 24 hrs. After incubation, samples were diluted 4 ml into 50 ml TSB to make E. coli stock. 200 μl samples were then placed into wells of a 96-microwell plate. All samples were prepared in TSB, (Blank) using TSB, ERGO (OXIS International), LF (Sigma Aldrich) and NLF were diluted to 1 mg/ml. The nitration reaction was prepared following the method reported by Selzle et al (Determination of nitration degrees for the birch pollen allergen Bet v 1. Analytical and Bioanalytical Chemistry 2013, 405(27):8945-49). According to this procedure, 400 μl aliquots of 5.0 mg/ml (±5%) LF in aqueous solution were pipetted into glass vials. […] Using the plate reader (Tecan Infinite, M1000 PRO). […]

[1] = ferrous iron (Fe++) binding capacity of LF; conditions: following sodium peroxinitrite-induced nitration of the iron-containing form of the protein
From the text: As noted above, LF binds ferrous iron (Fe++) and controls iron distribution throughout the body and its ability to bind to inflammatory and other cell membranes and impact the activities of these cells through its iron binding activities and other mechanisms. The inventors hypothesized that the antibacterial effect may be linked to the iron binding activity of LF and that this antibacterial effect may be disrupted by nitration.
However, sodium peroxinitrite caused changes that went far beyond the mere nitration of a few tyrosine residues to include destruction of tyrosine and tryptophan which at least in part were converted to unidentified reaction products. Nitration can occur as a consequence of the formation of reactive nitrogen species in the body and as a result of drug or chemical reactions, and/or environmental toxins in polluted air, water, or other routes of intake.

| Molecule | growth of E. coli (E. coli (ATCC 25922); LF 1 mg/ml or 2 mg/ml, ERGO 5 mM or 50 mM, compared to growth of E. coli without additions, FIGS. 1A and 1B) | iron-binding capacity of LF [1] | inhibition of growth of E. coli by previously nitrated LF (E. coli (ATCC 25922); LF nitrated with sodium peroxynitrite, compared to native (non-nitrated) LF) |
| --- | --- | --- | --- |
| LF: Lactoferrin (LF) is an 80 kDa glycoprotein that exists in mucosal secretions from exocrine glands and neutrophil granules (protein, UniProt P02788 20-710, looked up) Lactotransferrin: GRRRSVQWCAVSQPEATKCFQWQRNMRKVRGPPVSCIKRDSPIQCIQAIAENRADAVTLDGGFIYEAGLAPYKLRPVAAEVYGTERQPRTHYYAVAVVKKGGSFQLNELQGLKSCHTGLRRTAGWNVPIGTLRPFLNWTGPPEPIEAAVARFFSASCVPGADKGQFPNLCRLCAGTGENKCAFSSQEPYFSYSGAFKCLRDGAGDVAFIRESTVFEDLSDEAERDEYELLCPDNTRKPVDKFKDCHLARVPSHAVVARSVNGKEDAIWNLLRQAQEKFGKDKSPKFQLFGSPSGQKDLLFKDSAIGFSRVPPRIDSGLYLGSGYFTAIQNLRKSEEEVAARRARVVWCAVGEQELRKCNQWSGLSEGSVTCSSASTTEDCIALVLKGEADAMSLDGGYVYTAGKCGLVPVLAENYKSQQSSDPDPNCVDRPVEGYLAVAVVRRSDTSLTWNSVKGKKSCHTAVDRTAGWNIPMGLLFNQTGSCKFDEYFSQSCAPGSDPRSNLCALCIGDEQGENKCVPNSNERYYGYTGAFRCLAENAGDVAFVKDVTVLQNTDGNNNEAWAKDLKLADFALLCLDGKRKPVTEARSCHLAMAPNHAVVSRMDKVERLKQVLLHQQAKFGRNGSDCPDKFCLFQSETKNLLFNDNTECLARLHGKTTYEKYLGPQYVAGITNLKKCSTSPLLEACEFLRK | reduced the growth of E. coli | remained intact | – |
| nitrated LF: LF nitrated with sodium peroxynitrite at ONOO-/Tyr molar ratios of 10/1 and 40/1 (protein, UniProt P02788 20-710, looked up, tyrosine nitration by peroxynitrite) Lactotransferrin: GRRRSVQWCAVSQPEATKCFQWQRNMRKVRGPPVSCIKRDSPIQCIQAIAENRADAVTLDGGFIYEAGLAPYKLRPVAAEVYGTERQPRTHYYAVAVVKKGGSFQLNELQGLKSCHTGLRRTAGWNVPIGTLRPFLNWTGPPEPIEAAVARFFSASCVPGADKGQFPNLCRLCAGTGENKCAFSSQEPYFSYSGAFKCLRDGAGDVAFIRESTVFEDLSDEAERDEYELLCPDNTRKPVDKFKDCHLARVPSHAVVARSVNGKEDAIWNLLRQAQEKFGKDKSPKFQLFGSPSGQKDLLFKDSAIGFSRVPPRIDSGLYLGSGYFTAIQNLRKSEEEVAARRARVVWCAVGEQELRKCNQWSGLSEGSVTCSSASTTEDCIALVLKGEADAMSLDGGYVYTAGKCGLVPVLAENYKSQQSSDPDPNCVDRPVEGYLAVAVVRRSDTSLTWNSVKGKKSCHTAVDRTAGWNIPMGLLFNQTGSCKFDEYFSQSCAPGSDPRSNLCALCIGDEQGENKCVPNSNERYYGYTGAFRCLAENAGDVAFVKDVTVLQNTDGNNNEAWAKDLKLADFALLCLDGKRKPVTEARSCHLAMAPNHAVVSRMDKVERLKQVLLHQQAKFGRNGSDCPDKFCLFQSETKNLLFNDNTECLARLHGKTTYEKYLGPQYVAGITNLKKCSTSPLLEACEFLRK | – | – | did not inhibit the growth of E. coli as much as adding native (non-nitrated) LF |
